This passage reports duration of individual binding events (at 10 nM Gal4-VP16^649) results from article PMC11661148.

The test deals with Gal4-SNAP-VP16 labeled with SNAP-Surface-649 (S. cerevisiae | herpes simplex virus) (UniProt P04386). As to the kind of experiment: colocalization single-molecule spectroscopy.

Substance “Mediator complex with Med7-HA-SNAP labeled with SNAP-Surface-549 (from UniProt Q08278 1-222)” came in with a duration of individual binding events (at 10 nM Gal4-VP16^649) of 1 s.
